Laboratory results from US6482605.

Target: EGF receptor (endogenous, in PC12 cell lysate)

B1: histidine-tagged PTP20 wild-type (6 histidine residues at the N-terminus), tetracycline-controlled expression in PC12 cells (protein)
chain: MHHHHHHSRQSDLVRSFLEQQEARDHRKGAILAREFSDIKARSVAWKTEGVCSTKAGSQQGNSKKNRYKDVVPYDETRVILSLLQEEGHGDYINANFIRGTDGSQAYIATQGPLPHTLLDFWRLVWEFGIKVILMACQETENGRRKCERYWAQEREPLQAGPFCITLTKETALTSDITLRTLQVTFQKESRPVHQLQYMSWPDHGVPSSSDHILTMVEEARCLQGLGPGPLCVHCSAGCGRTGVLCAVDYVRQLLLTQTIPPNFSLFEVVLEMRKQRPAAVQTEEQYRFLYHTVAQLFSRTLQNNSPLYQNLKENRAPICKDSSSLRTSSALPATSRPLGGVLRSISVPGPPTLPMADTYAVVQKRGASGSTGPGTRAPNSTDTPIYSQVAPRIQRPVSHTENAQGTTALGRVPADENPSGPDAYEEVTDGAQTGGLGFNLRIGRPKGPRDPPAEWTRV
tyrosine phosphorylation of EGF receptor upon EGF stimulation (precipitation, anti-phosphotyrosine blot): Overexpression of PTP20 wt resulted in dramatic dephosphorylation of EGF receptor
